# According to paper PMC11512355:
# Molecular target: recombinant porcine astrovirus 4 (PoAstV4) capsid spike protein (porcine astrovirus 4)
# Experiment: SEC; Superdex 200 16/600 column in TBS pH 8.0 (10 mM Tris-HCl, 150 mM NaCl), compared with BioRad gel filtration standards
substance,measurement,value
recombinant porcine astrovirus 4 (PoAstV4) capsid spike protein (domain or fragment),stoichiometry N,2
